Laboratory results reported in PMC4767637.

Target: STAT3 (127-711)-His6 I568F (HIES mutant) (human) (UniProt P40763)
Assay: ITC

STAT3 (127-711)-His6 I568F (HIES mutant) (human), sequence (P40763 127-711 I568F): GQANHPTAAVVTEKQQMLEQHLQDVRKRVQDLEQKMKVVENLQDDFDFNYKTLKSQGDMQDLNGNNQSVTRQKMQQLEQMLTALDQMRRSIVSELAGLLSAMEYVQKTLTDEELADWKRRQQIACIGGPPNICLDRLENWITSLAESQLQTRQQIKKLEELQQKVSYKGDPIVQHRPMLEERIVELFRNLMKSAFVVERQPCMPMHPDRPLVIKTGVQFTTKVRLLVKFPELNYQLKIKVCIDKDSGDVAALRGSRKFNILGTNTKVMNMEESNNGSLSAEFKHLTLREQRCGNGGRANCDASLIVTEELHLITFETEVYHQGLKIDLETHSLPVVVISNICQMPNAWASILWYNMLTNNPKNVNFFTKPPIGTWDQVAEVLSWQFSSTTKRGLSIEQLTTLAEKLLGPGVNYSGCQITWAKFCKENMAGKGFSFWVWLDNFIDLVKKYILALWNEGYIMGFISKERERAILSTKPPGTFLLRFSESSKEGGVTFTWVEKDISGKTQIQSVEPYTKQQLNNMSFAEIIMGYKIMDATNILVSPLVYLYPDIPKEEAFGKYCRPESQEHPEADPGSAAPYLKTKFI

phosphotyrosine peptide derived from gp130 (pY904)
fold reduction in binding affinity against WT STAT3: 5 fold
